Molecular target: microtubules (tubulin purified from bovine brain) (bovine) (UniProt Q6B856)
Assay: co-sedimentation

microtubules (tubulin purified from bovine brain) (bovine), sequence (Q6B856 whole entry, looked up): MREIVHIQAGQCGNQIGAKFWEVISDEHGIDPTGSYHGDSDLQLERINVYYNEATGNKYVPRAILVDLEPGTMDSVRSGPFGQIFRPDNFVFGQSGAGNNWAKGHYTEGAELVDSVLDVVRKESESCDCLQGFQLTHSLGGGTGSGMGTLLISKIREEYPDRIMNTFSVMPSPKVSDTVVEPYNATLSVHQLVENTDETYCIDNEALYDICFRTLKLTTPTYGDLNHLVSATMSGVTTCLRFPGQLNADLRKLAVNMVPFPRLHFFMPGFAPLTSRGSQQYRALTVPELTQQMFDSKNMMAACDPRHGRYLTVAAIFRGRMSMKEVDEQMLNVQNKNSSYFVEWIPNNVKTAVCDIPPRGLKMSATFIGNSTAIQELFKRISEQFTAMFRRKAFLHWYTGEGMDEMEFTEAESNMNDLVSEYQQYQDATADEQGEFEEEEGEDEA

active fraction by microtubule pulldown (no CK2): 20% | percent of motor bound to microtubules (after CK2, 3:1 kinase:motor): 80%
Substance: native kinesin (kinesin-1, conventional kinesin) purified from bovine brain (complex)

— PMC3574636
